Test results taken from patent publication US20240229003A1.

Target: LGR6 (UniProt Q9HBX8)
Assay: cell-based or functional assay

UniProt Q9HBX8, sequence (Q9HBX8 25-967): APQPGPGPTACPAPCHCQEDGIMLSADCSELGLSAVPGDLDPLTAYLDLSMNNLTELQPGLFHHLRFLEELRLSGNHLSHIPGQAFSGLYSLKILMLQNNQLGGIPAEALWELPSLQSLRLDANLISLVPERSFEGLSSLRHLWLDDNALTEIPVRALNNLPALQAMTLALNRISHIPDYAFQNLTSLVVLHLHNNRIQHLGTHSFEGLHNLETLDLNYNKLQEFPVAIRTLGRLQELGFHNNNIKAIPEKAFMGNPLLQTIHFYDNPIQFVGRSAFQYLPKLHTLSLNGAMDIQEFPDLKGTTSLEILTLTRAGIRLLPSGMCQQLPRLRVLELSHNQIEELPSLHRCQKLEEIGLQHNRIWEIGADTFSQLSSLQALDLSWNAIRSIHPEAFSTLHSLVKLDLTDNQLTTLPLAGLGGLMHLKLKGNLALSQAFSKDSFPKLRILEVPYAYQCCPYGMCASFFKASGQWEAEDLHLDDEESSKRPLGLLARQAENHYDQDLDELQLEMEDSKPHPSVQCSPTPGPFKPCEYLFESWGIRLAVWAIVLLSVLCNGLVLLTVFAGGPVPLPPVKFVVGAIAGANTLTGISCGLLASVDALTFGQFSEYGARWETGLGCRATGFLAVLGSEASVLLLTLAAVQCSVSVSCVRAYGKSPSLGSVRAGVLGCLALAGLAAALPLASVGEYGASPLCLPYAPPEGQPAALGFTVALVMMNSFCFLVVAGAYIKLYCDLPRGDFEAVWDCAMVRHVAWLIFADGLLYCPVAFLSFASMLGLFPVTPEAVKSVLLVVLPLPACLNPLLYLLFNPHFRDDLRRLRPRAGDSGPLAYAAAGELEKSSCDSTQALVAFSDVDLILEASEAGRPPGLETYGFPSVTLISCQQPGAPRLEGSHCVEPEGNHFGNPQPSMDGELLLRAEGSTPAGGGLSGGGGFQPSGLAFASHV

Substance “MBP-RSPO1-MMAE (from UniProt Q2MKA7 21-145)” has an IC50 of cell killing on LGR6-overexpressing HEK-LGR6-2 cells (10 days exposure, CCK-8 viability) of 0.08 nM and a fold potency of killing, HEK-LGR6-2 cells against empty vector-transfected HEK-pcDNA cells of 12 fold.
